Data published in the supplement of paper PMC9170038.

Test system: MS2 coat protein
Assay: apparent KD of MS2 coat protein; designed switch direction (-1 OFF switch, 1 ON switch): 1; higher = weaker reporter binding
Method in brief: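 RNA switches sharing common flanks were transcribed by stalled E. coli RNA polymerase on Illumina chips. A doubling series of SNAP-549-labelled MS2 coat protein, from 0.7 or 1.5 nM to 3 µM, was applied in Tris-HCl pH 7.5 buffer with KCl, MgCl2, BSA, DTT, tRNA and Tween-20. Each step lasted 0.8–1.5 h at the bottom of the series and 10–20 min at the top. Normalised cluster fluorescence was curve-fitted, giving apparent KD as the per-design median over clusters.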

[1] = input ligand: microRNA oligo, concentration not stated
[2] = Eterna round: R95, input ligand: FMN 200 uM
[3] = Eterna round: R95, input ligand: microRNA oligo, concentration not stated
[4] = Eterna round: R95, input ligand: none

Sequence | apparent KD of MS2 coat protein (input ligand: FMN 200 uM) [nM] | apparent KD of MS2 coat protein [1] [nM] | apparent KD of MS2 coat protein (input ligand: none) [nM] | apparent KD of MS2 coat protein [2] [nM] | apparent KD of MS2 coat protein [3] [nM] | apparent KD of MS2 coat protein [4] [nM]
UCCGCUAUCUAGAAGGAUAUGCGUAUAUAAACAUGAGGAUCACCCAUGUACCGGCGAAAACCGGUGCAGAAGGUUUAGCUAGUGA [Rediin] (Eterna round: R96, puzzle: Same State 2) | 69.8 | 298 | 359 | – | – | –
GUAAAACAUGAGGAUCACCCAUGUAAUAAUAUGGGAGGAUAUCAGAUUUAAUUUAAUUUAUGAGAAGGCCUAAAUG [Mat - Same State 1 - Mod of Eli - D59] (puzzle: Same State 1) | – | – | – | 57.4 | 181 | 427
GAGGGCGAAAGCAACAUGAGGAUCACCCAUGUCCUCGGAGGUCAGGAUAUCCGGCGGUAGCCGAAGGAGAAGGGACGGUGAACC [AK SSNG3-V2-32.1] (Eterna round: R96, puzzle: Same State NG 3) | 180 | 97.5 | 175 | – | – | –
GUUAAACAUGAGGAUCACCCAUGUAAUAUAAUGGGAGGAUAUCUGAAUUAAUUAAAUUAAGGAGAAGGCCUAUAUG [Mat - Same State 1 - Mod of Eli - D53] (puzzle: Same State 1) | – | – | – | 36.6 | 210 | 271
GUAGAAGAACUAGAGGAUAUCCGAGUGGUAACAUGAGGAUCACCCAUGUGAUGAAAGGAACAUGAGGAGAAGGCUAGAAUGAAUG [Mat - Same State 2 - Mod of JL - D83] (puzzle: Same State 2) | – | – | – | 24.7 | 45.7 | 79.2
UUUAUACAUGAGGAUCACCCAUGUCAACAAAGUCGAGGAUAUGGGCAUAUUAUCUUAUUUCCAGAAGGCGAAUUCU [salish99_ss1_r3_090] (puzzle: Same State 1) | – | – | – | – | 158 | –
GAGCCAGUCCGAGGAUAUUCAUAUUAACACAUGAGGAUCACCCAUGUAGGCUCAGAAGAGCCCUGGGAGAAGGCGGACUGGCUC [SS-NG2-LRO15] (Eterna round: R96, puzzle: Same State NG 2) | 85.5 | 455 | 1100 | – | – | –
UAACAACAUAUAGAACAAGCGUGCUCGUCACAUGAGGAUCACCCAUGUCUAAGCGCUGUACCUACAUCCUCAGCGCC [Raononbeen] (puzzle: Sensor for hsa-mir-208a) | – | – | – | 105 | 29.2 | 96.4
GGAGCCGGCCUAGGAUAUUUCAUCAAAAAACAUGAGGAUCACCCAUGUAGGCCAGAAGGCCUUGGGAAGAAGGAGGUCGGCUCC [Loop Effect - C24] (Eterna round: R96, puzzle: Same State NG 2) | 10.2 | 14.6 | 19 | – | – | –
CAGCGCUGUCGAGAGGAUAUGCGGUGAUGGACAUGAGGAUCACCCAUGUUAGCGAUAGCAUUACGGUAGAAGGCUCUGCAGCUGC [Soteed - 1] (puzzle: Same State 2) | – | – | – | – | 78.9 | –
UCAGUCAUGUAAGGAUAUGCAGCCGUUUCGGCUGCAGAAGGUACUAUAAUUACAUGAGGAUCACCCAUGUUAUAAAAUUUAUAU [JL SSNG1 1.25] (Eterna round: R96, puzzle: Same State NG 1) | – | 38.8 | – | – | – | –
UUCUCACUGGUAGGAUAUGUAGGAUAUGUACAUGAGGAUCACCCAUGUCAGUUAAUGACAGAAGGAUAGAAGGACCACAUCUCU [pwkr ssNG2 2FMN 1F5s.1] (Eterna round: R96, puzzle: Same State NG 2) | 198 | 139 | 146 | – | – | –
GUUACAUGAGGAUCACCCAUGUAUGUGUGGGAGUAAGUGUCUUAGGAUAUCUGUUAUUUAAAUUAAGAGAAGGAAGAUUGUUGU [JMF's solution 8] (Eterna round: R96, puzzle: Same State NG 3) | 120 | 89.2 | 110 | – | – | –
GGAGCCUGCACUGAGGAUAUUCGUAGUGUAACAUGAGGAUCACCCAUGUGUCGCCGUAGCGACUGGGAGAAGGCAGUGCGGCUCG [JL-ss2-3.07 ViennaUCT mod] (puzzle: Same State 2) | – | – | – | 25.9 | 48.4 | 84.3
GAGAGACAUGAGGAUCACCCAUGUAGGAGAAGACAAGGAUAUGUAGGAGAAGGAGAAGGAACAGAAGGUGUGGGAG [JR_SS1_Sub051] (puzzle: Same State 1) | – | – | – | 57.9 | 96.6 | 109
AUUCGUUUGAUAGGAUAUCGCUAUACAUGAGGAUCACCCAUGUUUACCACGCUGGUUUUUCGUACCGAGAAGGAUUCUGAUGAU [JL JR sub007 mod 3] (Eterna round: R96, puzzle: Same State NG 2) | 35.4 | 27.3 | 41.4 | – | – | –

Sequence | apparent KD of MS2 coat protein (input ligand: FMN 200 uM) [nM] | apparent KD of MS2 coat protein [1] [nM] | apparent KD of MS2 coat protein (input ligand: none) [nM] | apparent KD of MS2 coat protein [2] [nM] | apparent KD of MS2 coat protein [3] [nM] | apparent KD of MS2 coat protein [4] [nM]
GGUAGGUUACUACCAGACAUGAGGAUCACCCAUGUAAGUGGGAAGGAUAUGGUACCUUUUAGGUACCAGAAGGUCCAUAUAUUC [JL SSNG3 1.44] (Eterna round: R96, puzzle: Same State NG 3) | 178 | 637 | 849 | – | – | –
AUGGAGACCGGAGGAUAUGGACCAACAAUCGGUCCAGAAGGCUGCCCAUGGUAUACAUGAGGAUCACCCAUGUGGCCGCGGAGA [Eternabot solution 13] (Eterna round: R96, puzzle: Same State NG 1) | 65.8 | 69.2 | 102 | – | – | –
UUGCGGGCUUGAGGAUAUUGAGUACAUAUGUUUAACAUGAGGAUCACCCAUGUGGGUUGCGGUGUCGAGAAGGUGGCUUCCUGC [salish99_SSNG2_r04_814] (Eterna round: R96, puzzle: Same State NG 2) | 99.2 | 76.7 | 91.5 | – | – | –
AUCCGGAAGCGAGGAUAUGCAGAGGAUCACCCUGCAGAAGGCGCAAAAGCGAGGAUAUGCAGAGGAUCACCCUGCAGAAGGCGC [pwkr ssNG DX.28] (Eterna round: R96, puzzle: Same State NG 1) | 14 | 12.6 | 42.1 | – | – | –
UCUUGGUUUUUGCUCGUUUUUUGUGUUGAACAUGAGGAUCACCCAUGUAUUGUACAAUCCAGUUUGAUAAUGGUCCA [Mod of one of JR's submissions] (puzzle: Sensor for hsa-mir-208a) | – | – | – | 80.2 | 77.6 | 102
CUCAAACAUGAGGAUCACCCAUGUGUUGUCGUGGGAGGAUAUCCCAGUUCGGUGGCGUCGGGAGAAGGCCUAUGUC (Eterna round: R96, puzzle: Same State 1) | 67.8 | 106 | 129 | – | – | –
UGCUAGGAUAUCUUGAGGAUCACCCAGGAGAAGGAGCCAAGCUAGGAUAUCCUGAGGAUCACCCAGGAGAAGGAGCACAUACUC [pwkr ssNG3 DX 2xF5 +2xFMN.13] (Eterna round: R96, puzzle: Same State NG 3) | 107 | 59.6 | 102 | – | – | –
AUUAUUUAUGCAGGAUAUGAUUAACAUGAGGAUCACCCAUGUGGUGUUGUGAGUAAGGAGAGUGAUCAGAAGGGCAUUUUUUCU [JMF's solution 55] (Eterna round: R96, puzzle: Same State NG 2) | 460 | 361 | 490 | – | – | –
AGUCCAGCAAGAGCUGGACAAAAGCAUGUACAUGAGGAUCACCCAUGUUCAUGUACAAGCUUUUAGCUCGUCUUAAA [Mat - hsa-mir-208a - Mod of JL - 58] (puzzle: Sensor for hsa-mir-208a) | – | – | – | 505 | 14.2 | 570
GGUAGGUUACUACCAAACAUGAGGAUCACCCAUGUAAAUGGGAAGGAUAUGGUACCGUUUCGGUACCAGAAGGUCCAAAAUAUU [JL Fiskers NG3ss - 2 final mod] (Eterna round: R96, puzzle: Same State NG 3) | 418 | 356 | 1520 | – | – | –
GGAGCCGGCACCGAGGAUAUUCAUAUUAAAACAUGAGGAUCACCCAUGUACGCCAGAAGGCGUUGGGAGAAGGCGGAUCGGCUCG [Xeonanis - 22] (puzzle: Same State 2) | – | – | – | 57.6 | 79.9 | 362
UUGCGGGCUUGAGGAUAUUGAGUACAUAUGUUUAACAUGAGGAUCACCCAUGUGGGUUGCGGUAUCGAGAAGGUAACUUACUAC [salish99_SSNG2_r04_807] (Eterna round: R96, puzzle: Same State NG 2) | 110 | 70.4 | 97.2 | – | – | –
GCACAUGAGGAUCACCCAUGUGCGAGAAAGACGGACCGGAUACAGGAUAUGCGCGAACGGAAGACGCAGAAGGGUGACCAAAAC [Anmaed] (Eterna round: R96, puzzle: Same State NG 3) | 64.1 | 38.2 | 40.6 | – | – | –
CAAGUACAUGAGGAUCACCCAUGUAGAAGAGAUGCAGGAUAUGUGGGAAAAGGGAGUGUAACAGAAGGGCAAGGAG [JR_SS!_Sub018] (puzzle: Same State 1) | – | – | – | 50 | 55.4 | 59.9
GGCCAGAGUCAAGGAUAUGCUACCGUUUCGGUAGCAGAAGGUGAUCACAUGAGGAUCACCCAUGUAUACGCUGGAAAGCGGGCC [JL SSNG1 3.64] (Eterna round: R96, puzzle: Same State NG 1) | 452 | 480 | 1430 | – | – | –
